Our source for the Specificity values is US10705101B2, “Determination of the unbound free fatty acid profiles in biological and industrial specimens” (priority 2013, dated 2020).

The nature of the assay: Probe response profile / specificity for different FFAu at 1 nM. The format is binding. As to conditions: FFAu giving the largest response to 1 nM of each FFAu; several listed in order of degree of specificity. The text has this: The abbreviations are: arachidonate (AA), docosahexaenoate (DHA), eicosapentaenoate (EPA), laurate (LAU), linoleate (LA), linolenate (LNA), myristate (MA), oleate (OA), palmitate (PA), palmitoleate (POA), stearate (SA), and vaccenate (VA).
Examples of probes used, generally in groups of 10 or more, to determine FFAu profiles in biological samples such as blood plasma or serum from animals and humans or media from microorganisms are shown in Table 2. In the sequences presented in Table 2 and the sequence listing, amino acids are numbered from the first residue of the mature protein. The initiator methionine residue of the wild-type protein is removed by aminopeptidase activity, leaving an alanine as residue 1. Thus, counting backwards and skipping 0, the initiator methionine is at residue position −1. Specificity indicates the FFAu that gives the largest response to 1 nM of each FFAu when one FFAu dominates the profile and more than one when there is a more even distribution of specificity. Where more than one is indicated they are listed in order of degree of specificity. The abbreviations are: arachidonate (AA), docosahexaenoate (DHA), eicosapentaenoate (EPA), laurate (LAU), linoleate (LA), linolenate (LNA), myristate (MA), oleate (OA), palmitate (PA), palmitoleate (POA), stearate (SA), and vacsinate (VA). The sequences indicate mutations relative to SEQ ID NO: 1. This sequence is a mutated rat intestinal fatty acid binding protein with a Glu 131 to Asp substitution and includes a COOH-terminal affininity tag comprising […], Gly 133 and 6 histidines.
The response profile is the fluorescence change as evaluated as (R−Ro)/Ro (ΔR/Ro) for each FFAu added as a complex of the FFA and albumin so that the FFAu concentration is clamped or buffered at 1 nM for every FFAu for which a calibration has been performed. The calculation is performed simply by rearranging equation 2 to solve for ΔR/Ro. […] However all the probes have different profiles and therefore complementary specificities for different FFAu. Abbreviations are as in Table 2.

B1: L76P9 E4: acrylodan-labeled mutant FABP probe: Y14L, M18Y, I23T, K27L, L30C, G31I, L72G, A73I, D74A, L78V, W82P, G91S, F93M, A104F, R106L, Y117L, Q115A (protein, UniProt P02693 2-132, looked up, variant Y14L M18Y I23T K27L L30C G31I L72G A73I D74A L78V W82P G91S F93M A104F R106L Y117L Q115A)
Fatty acid-binding protein, …: AFDGTWKVDRNENLEKFYEKMGTNVVLRKCIAHDNLKLTITQEGNKFTVKESSNFRNIDVVFELGVDFAYSGIAGTEVTGTPTMEGNKLVSKMKRVDNGKELIFVLEISGNELIATLTYEGVEAKRIFKKE
modifications: acrylodan label
notes: acrylodan-labeled mutant FABP probe: Y14L, M18Y, I23T, K27L, L30C, G31I, L72G, A73I, D74A, L78V, W82P, G91S, F93M, A104F, R106L, Y117L, Q115A
B1: the Specificity result is “OA/VA/SA/LA”.

B2: L9BP6 H3: acrylodan-labeled mutant FABP probe: L38Y, F62W, L72A, Y117A (protein, UniProt P02693 2-132, looked up, variant L38Y F62W L72A Y117A)
Fatty acid-binding protein, …: AFDGTWKVDRNENYEKFMEKMGINVVKRKLGAHDNLKYTITQEGNKFTVKESSNFRNIDVVWELGVDFAYSAADGTELTGTWTMEGNKLVGKFKRVDNGKELIAVREISGNELIQTATYEGVEAKRIFKKE
modifications: acrylodan label
notes: acrylodan-labeled mutant FABP probe: L38Y, F62W, L72A, Y117A
Take B2: the Specificity result is given as “SA/OA/PA”.

B3: L10P7 A4: acrylodan-labeled mutant FABP probe: Y14L, M18L, G31Y, A73L, Y117A (protein, UniProt P02693 2-132, looked up, variant Y14L M18L G31Y A73L Y117A)
Fatty acid-binding protein, …: AFDGTWKVDRNENLEKFLEKMGINVVKRKLYAHDNLKLTITQEGNKFTVKESSNFRNIDVVFELGVDFAYSLLDGTELTGTWTMEGNKLVGKFKRVDNGKELIAVREISGNELIQTATYEGVEAKRIFKKE
modifications: acrylodan label
notes: acrylodan-labeled mutant FABP probe: Y14L, M18L, G31Y, A73L, Y117A
As to B3, the Specificity result was “AA/DHA/OA/EPA/LA”.

B4: L118P4 H5: acrylodan-labeled mutant FABP probe: Y14W, M18Q, K27C, L72A, D74Q, R106W (protein, UniProt P02693 2-132, looked up, variant Y14W M18Q K27C L72A D74Q R106W)
Fatty acid-binding protein, …: AFDGTWKVDRNENWEKFQEKMGINVVCRKLGAHDNLKLTITQEGNKFTVKESSNFRNIDVVFELGVDFAYSAAQGTELTGTWTMEGNKLVGKFKRVDNGKELIAVWEISGNELIQTYTYEGVEAKRIFKKE
modifications: acrylodan label
notes: acrylodan-labeled mutant FABP probe: Y14W, M18Q, K27C, L72A, D74Q, R106W
For the molecule B4, the Specificity result is “DHA”.

B5: L33P3 F9: acrylodan-labeled mutant FABP probe: M18L, I23L, G31N, L72W, A73T, D74A, R106A, Q115E, Y117V (protein, UniProt P02693 2-132, looked up, variant M18L I23L G31N L72W A73T D74A R106A Q115E Y117V)
Fatty acid-binding protein, …: AFDGTWKVDRNENYEKFLEKMGLNVVKRKLNAHDNLKLTITQEGNKFTVKESSNFRNIDVVFELGVDFAYSWTAGTELTGTWTMEGNKLVGKFKRVDNGKELIAVAEISGNELIETVTYEGVEAKRIFKKE
modifications: acrylodan label
notes: acrylodan-labeled mutant FABP probe: M18L, I23L, G31N, L72W, A73T, D74A, R106A, Q115E, Y117V
With B5, the Specificity entry is given as “DHA/AA”.

B6: L35P22E8: acrylodan-labeled mutant FABP probe: M18L, I23L, G31N, L36R, L38V, L72W, A73T, D74A, R106A, Q115E, Y117V (protein, UniProt P02693 2-132, looked up, variant M18L I23L G31N L36R L38V L72W A73T D74A R106A Q115E Y117V)
Fatty acid-binding protein, …: AFDGTWKVDRNENYEKFLEKMGLNVVKRKLNAHDNRKVTITQEGNKFTVKESSNFRNIDVVFELGVDFAYSWTAGTELTGTWTMEGNKLVGKFKRVDNGKELIAVAEISGNELIETVTYEGVEAKRIFKKE
modifications: acrylodan label
notes: acrylodan-labeled mutant FABP probe: M18L, I23L, G31N, L36R, L38V, L72W, A73T, D74A, R106A, Q115E, Y117V
With B6, the Specificity result is “DHA/AA”.

B7: L44P1 C10: acrylodan-labeled mutant FABP probe: Y14L, M18L, I23L, G31N, L72G, A73T, D74A, R106W, Q115W, Y117L (protein, UniProt P02693 2-132, looked up, variant Y14L M18L I23L G31N L72G A73T D74A R106W Q115W Y117L)
Fatty acid-binding protein, …: AFDGTWKVDRNENLEKFLEKMGLNVVKRKLNAHDNLKLTITQEGNKFTVKESSNFRNIDVVFELGVDFAYSGTAGTELTGTWTMEGNKLVGKFKRVDNGKELIAVWEISGNELIWTLTYEGVEAKRIFKKE
modifications: acrylodan label
notes: acrylodan-labeled mutant FABP probe: Y14L, M18L, I23L, G31N, L72G, A73T, D74A, R106W, Q115W, Y117L
Turning to B7, the Specificity result is recorded as “PA/OA/SA”.

B8: L128P18 A7: acrylodan-labeled mutant FABP probe: Y14W, M18L, M21I, I23L, K27C, G31G, L38V, S71M, L72W, A73T, D74P, A104I, R106A, Q115E, Y117V (protein, UniProt P02693 2-132, looked up, variant Y14W M18L M21I I23L K27C G31G L38V S71M L72W A73T D74P A104I R106A Q115E Y117V)
Fatty acid-binding protein, …: AFDGTWKVDRNENWEKFLEKIGLNVVCRKLGAHDNLKVTITQEGNKFTVKESSNFRNIDVVFELGVDFAYMWTPGTELTGTWTMEGNKLVGKFKRVDNGKELIIVAEISGNELIETVTYEGVEAKRIFKKE
modifications: acrylodan label
notes: acrylodan-labeled mutant FABP probe: Y14W, M18L, M21I, I23L, K27C, G31G, L38V, S71M, L72W, A73T, D74P, A104I, R106A, Q115E, Y117V
B8: the Specificity entry is reported as “DHA/AA”.

B9: L36P15 B7-1: acrylodan-labeled mutant FABP probe: M18L, I23V, G31N, F55R, L72W, A73T, D74A, R106A, Q115E, Y117V (protein, UniProt P02693 2-132, looked up, variant M18L I23V G31N F55R L72W A73T D74A R106A Q115E Y117V)
Fatty acid-binding protein, …: AFDGTWKVDRNENYEKFLEKMGVNVVKRKLNAHDNLKLTITQEGNKFTVKESSNRRNIDVVFELGVDFAYSWTAGTELTGTWTMEGNKLVGKFKRVDNGKELIAVAEISGNELIETVTYEGVEAKRIFKKE
modifications: acrylodan label
notes: acrylodan-labeled mutant FABP probe: M18L, I23V, G31N, F55R, L72W, A73T, D74A, R106A, Q115E, Y117V
On to B9, for which the Specificity result is on record as “HA/AA/EPA”.

B10: L35P10C4: acrylodan-labeled mutant FABP probe: M18L, G31N, L36Y, L72W, A73T, D74A, R106A, Q115E, Y117V (protein, UniProt P02693 2-132, looked up, variant M18L G31N L36Y L72W A73T D74A R106A Q115E Y117V)
Fatty acid-binding protein, …: AFDGTWKVDRNENYEKFLEKMGINVVKRKLNAHDNYKLTITQEGNKFTVKESSNFRNIDVVFELGVDFAYSWTAGTELTGTWTMEGNKLVGKFKRVDNGKELIAVAEISGNELIETVTYEGVEAKRIFKKE
modifications: acrylodan label
notes: acrylodan-labeled mutant FABP probe: M18L, G31N, L36Y, L72W, A73T, D74A, R106A, Q115E, Y117V
Regarding B10, the Specificity entry is recorded as “DHA/AA”.

B11: L50BP4 E2: acrylodan-labeled mutant FABP probe: M18L, M21F, I23F, K27C, G31N, L72T, A73T, D74A, T76F (protein, UniProt P02693 2-132, looked up, variant M18L M21F I23F K27C G31N L72T A73T D74A T76F)
Fatty acid-binding protein, …: AFDGTWKVDRNENYEKFLEKFGFNVVCRKLNAHDNLKLTITQEGNKFTVKESSNFRNIDVVFELGVDFAYSTTAGFELTGTWTMEGNKLVGKFKRVDNGKELIAVREISGNELIQTYTYEGVEAKRIFKKE
modifications: acrylodan label
notes: acrylodan-labeled mutant FABP probe: M18L, M21F, I23F, K27C, G31N, L72T, A73T, D74A, T76F
Regarding B11, the Specificity result is listed as “PA/MA”.

B12: L37P1 C3: acrylodan-labeled mutant FABP probe: Y14W, M18L, M21I, I23L, G31N, L38V, L72W, A73T, D74A, R106A, Q115E, Y117V (protein, UniProt P02693 2-132, looked up, variant Y14W M18L M21I I23L G31N L38V L72W A73T D74A R106A Q115E Y117V)
Fatty acid-binding protein, …: AFDGTWKVDRNENWEKFLEKIGLNVVKRKLNAHDNLKVTITQEGNKFTVKESSNFRNIDVVFELGVDFAYSWTAGTELTGTWTMEGNKLVGKFKRVDNGKELIAVAEISGNELIETVTYEGVEAKRIFKKE
modifications: acrylodan label
notes: acrylodan-labeled mutant FABP probe: Y14W, M18L, M21I, I23L, G31N, L38V, L72W, A73T, D74A, R106A, Q115E, Y117V
As to B12, the Specificity result is recorded as “AA/DHA/EPA”.

B13: L50BP9 D5: acrylodan-labeled mutant FABP probe: M18L, M21F, I23L, K27C, G31N, L72S, A73T, D74A, T76I, Y117N (protein, UniProt P02693 2-132, looked up, variant M18L M21F I23L K27C G31N L72S A73T D74A T76I Y117N)
Fatty acid-binding protein, …: AFDGTWKVDRNENYEKFLEKFGLNVVCRKLNAHDNLKLTITQEGNKFTVKESSNFRNIDVVFELGVDFAYSSTAGIELTGTWTMEGNKLVGKFKRVDNGKELIAVREISGNELIQTNTYEGVEAKRIFKKE
modifications: acrylodan label
notes: acrylodan-labeled mutant FABP probe: M18L, M21F, I23L, K27C, G31N, L72S, A73T, D74A, T76I, Y117N
In the case of B13, the Specificity entry is “PA/POA/MA”.
